In article PMC7980507 (Protein Science : A Publication of the Protein Society, 2021):

Biological target: His‐tagged SARS‐CoV‐2 spike receptor binding domain (RBD) (SARS-CoV-2, UniProt P0DTC2)
Assay: BLI

| Binder | binding result |
| --- | --- |
| CB6 (antibody, V domains shown) VH: EVQLVESGGGLVQPGGSLRLSCAASGFTVSSNYMSWVRQAPGKGLEWVSVIYSGGSTFYADSVKGRFTISRDNSMNTLFLQMNSLRAEDTAVYYCARVLPMYGDYLDYWGQGTLVTVSS VL: not shown | binds |
| EY6A (antibody, V domains shown) VH: EVQLVESGGGVVQPGRSLRLSCAASAFTFSSYDMHWVRQAPGKGLEWVAVISYDGSNKYYADSVKGRFTISRDNSKNTLYLQMNSLRAEDTAVYYCAKDGGKLWVYYFDYWGQGTLVTVSS VL: not shown | binds |
